The record followed here is US20220204994A1.

In data set [1] the test system is B2M13-14.479 engineered meganuclease (Artificial). In words: cell_activity. To be noted: MC3 LNP repeat dose day 0 and day 3, ApoE, measured day 7; 22.62% in the comparison without repeat dosing.
The target in data set [2] is CD19 on Raji cells (B cell lymphoma line, Burkitt's Lymphoma) (UniProt P15391). In words: cell-based or functional assay.
UniProt P15391, sequence (P15391 20-556 limits assumed): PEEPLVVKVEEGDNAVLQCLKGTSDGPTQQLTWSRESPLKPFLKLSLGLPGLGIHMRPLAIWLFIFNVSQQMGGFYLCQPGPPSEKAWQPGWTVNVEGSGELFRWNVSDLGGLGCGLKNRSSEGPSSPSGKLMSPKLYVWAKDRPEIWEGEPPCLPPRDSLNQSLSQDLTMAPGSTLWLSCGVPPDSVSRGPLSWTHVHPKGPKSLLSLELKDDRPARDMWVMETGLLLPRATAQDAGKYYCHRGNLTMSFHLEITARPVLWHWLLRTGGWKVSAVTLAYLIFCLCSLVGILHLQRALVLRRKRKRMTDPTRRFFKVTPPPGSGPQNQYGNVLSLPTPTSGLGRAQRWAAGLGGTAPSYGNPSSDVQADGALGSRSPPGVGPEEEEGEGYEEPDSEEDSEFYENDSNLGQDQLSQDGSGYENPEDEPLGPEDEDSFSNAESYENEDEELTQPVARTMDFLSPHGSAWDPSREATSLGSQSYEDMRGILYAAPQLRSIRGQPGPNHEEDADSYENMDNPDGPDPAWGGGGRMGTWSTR

“B2M 13-14 recognition sequence (B2M gene)” returned an activity (% B2M knockout) in data set [1] of 26.4.
In data set [2], “anti-CD19 CAR (FMC63) expressed on human donor T cells after AAV6-7206 transduction” returned a killing of CD19+ Raji cells in 16 h co-culture (CAR T cells made with AAV added 0-24 hours after LNP) of 99% and a killing of CD19+ Raji cells in 16 h co-culture (CAR T cells made with AAV added 24-48 hours after LNP) of 94%.
